Measured values from PMC2111462.

Molecular target: purified rat skin collagen type I (rat) (UniProt P02454)
Test: affinity chromatography

Chain of UniProt P02454 (P02454 152-1207, chain 1 of 2): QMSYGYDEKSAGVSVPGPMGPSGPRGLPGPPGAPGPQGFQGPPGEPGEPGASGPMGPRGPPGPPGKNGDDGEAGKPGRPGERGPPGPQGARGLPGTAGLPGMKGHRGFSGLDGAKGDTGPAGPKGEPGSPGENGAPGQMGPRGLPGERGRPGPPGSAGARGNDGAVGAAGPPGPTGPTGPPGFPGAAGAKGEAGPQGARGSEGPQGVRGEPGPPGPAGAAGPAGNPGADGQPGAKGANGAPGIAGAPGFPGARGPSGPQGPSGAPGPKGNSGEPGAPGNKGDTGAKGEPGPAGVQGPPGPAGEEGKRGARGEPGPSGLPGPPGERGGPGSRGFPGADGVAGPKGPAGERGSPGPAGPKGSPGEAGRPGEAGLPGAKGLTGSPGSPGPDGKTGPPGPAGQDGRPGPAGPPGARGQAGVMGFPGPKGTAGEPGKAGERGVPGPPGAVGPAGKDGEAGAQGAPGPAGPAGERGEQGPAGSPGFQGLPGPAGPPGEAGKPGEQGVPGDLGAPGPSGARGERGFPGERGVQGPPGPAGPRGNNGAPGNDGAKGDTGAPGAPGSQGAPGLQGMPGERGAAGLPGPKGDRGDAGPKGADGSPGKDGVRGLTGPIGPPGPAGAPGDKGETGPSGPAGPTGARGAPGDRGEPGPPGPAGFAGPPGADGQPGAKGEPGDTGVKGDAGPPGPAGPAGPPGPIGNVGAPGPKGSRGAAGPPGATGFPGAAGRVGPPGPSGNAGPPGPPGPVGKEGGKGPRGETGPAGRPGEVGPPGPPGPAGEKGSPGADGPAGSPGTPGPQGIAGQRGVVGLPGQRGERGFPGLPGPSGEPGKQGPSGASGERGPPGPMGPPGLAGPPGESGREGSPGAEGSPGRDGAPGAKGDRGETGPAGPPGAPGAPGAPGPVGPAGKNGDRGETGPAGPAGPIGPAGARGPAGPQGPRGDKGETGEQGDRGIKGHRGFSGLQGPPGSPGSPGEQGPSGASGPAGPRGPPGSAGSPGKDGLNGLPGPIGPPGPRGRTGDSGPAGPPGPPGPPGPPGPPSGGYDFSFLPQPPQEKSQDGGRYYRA
Chain of UniProt P02454 (P02466 86-1125, chain 2 of 2, further chain): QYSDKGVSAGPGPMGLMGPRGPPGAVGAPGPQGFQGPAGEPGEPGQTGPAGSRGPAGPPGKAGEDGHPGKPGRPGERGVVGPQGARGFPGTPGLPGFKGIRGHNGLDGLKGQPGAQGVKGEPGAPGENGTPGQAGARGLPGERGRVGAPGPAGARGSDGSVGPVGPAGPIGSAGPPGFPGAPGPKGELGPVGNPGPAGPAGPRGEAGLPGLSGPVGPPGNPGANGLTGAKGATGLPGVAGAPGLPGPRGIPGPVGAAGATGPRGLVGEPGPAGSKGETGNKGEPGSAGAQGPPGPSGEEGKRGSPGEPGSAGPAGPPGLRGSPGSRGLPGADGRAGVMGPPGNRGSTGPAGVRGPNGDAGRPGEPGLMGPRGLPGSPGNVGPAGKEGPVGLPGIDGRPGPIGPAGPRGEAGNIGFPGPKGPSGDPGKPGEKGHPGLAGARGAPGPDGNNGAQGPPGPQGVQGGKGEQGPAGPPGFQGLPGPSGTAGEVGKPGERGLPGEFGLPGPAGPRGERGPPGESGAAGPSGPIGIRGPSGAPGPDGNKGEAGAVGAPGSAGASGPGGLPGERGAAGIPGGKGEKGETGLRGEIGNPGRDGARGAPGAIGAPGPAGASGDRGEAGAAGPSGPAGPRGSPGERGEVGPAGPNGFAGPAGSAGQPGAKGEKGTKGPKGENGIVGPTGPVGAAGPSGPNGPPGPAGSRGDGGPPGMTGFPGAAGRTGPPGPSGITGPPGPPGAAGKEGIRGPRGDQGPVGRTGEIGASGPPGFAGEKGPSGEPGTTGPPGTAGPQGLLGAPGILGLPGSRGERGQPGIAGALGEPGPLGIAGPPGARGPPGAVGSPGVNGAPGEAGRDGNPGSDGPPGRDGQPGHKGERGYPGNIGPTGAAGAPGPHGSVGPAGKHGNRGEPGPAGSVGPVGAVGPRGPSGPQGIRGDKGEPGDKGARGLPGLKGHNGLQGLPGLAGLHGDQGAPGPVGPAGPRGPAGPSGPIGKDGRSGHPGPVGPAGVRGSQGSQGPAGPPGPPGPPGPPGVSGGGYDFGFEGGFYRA

KBr concentration at which the bound fibronectin eluted: 1 M
Substance: human plasma fibronectin (natural protein)
